Test results: publication PMC6589570 (Molecular Biology of the Cell, 2019)

Target: T1, cytosolic domain of SEC12 (PREB), his-tagged (UniProt Q9HCU5 1-388)
T1 sequence (looked up): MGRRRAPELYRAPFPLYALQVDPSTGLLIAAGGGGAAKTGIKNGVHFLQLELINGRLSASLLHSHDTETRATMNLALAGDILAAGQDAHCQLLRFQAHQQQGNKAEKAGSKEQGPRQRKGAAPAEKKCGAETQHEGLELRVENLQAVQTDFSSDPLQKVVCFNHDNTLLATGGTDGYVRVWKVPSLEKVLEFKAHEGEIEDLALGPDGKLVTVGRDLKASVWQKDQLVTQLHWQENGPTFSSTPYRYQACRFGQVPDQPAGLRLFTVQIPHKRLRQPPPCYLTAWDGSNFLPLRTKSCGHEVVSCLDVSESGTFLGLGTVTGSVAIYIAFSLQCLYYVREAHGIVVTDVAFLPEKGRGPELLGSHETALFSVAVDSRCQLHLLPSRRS
Test: liposome flotation

fold recruitment to liposomes with SEC12 against without SEC12: ~3.5 fold
B1: fatty-acid binding protein 5 (FABP5), rat (natural protein, UniProt P55053 1-135, looked up)
chain: MASLKDLEGKWRLVESHGFEDYMKELGVGLALRKMGAMAKPDCIITLDGNNLTVKTESTVKTTVFSCTLGEKFDETTADGRKTETVCTFTDGALVQHQKWEGKESTITRKLKDGKMVVECVMNNAICTRVYEKVQ
